Assay results: patent publication US20210238260
Values joined by “and” are separate entries in the source; they are usually repeats but may differ in a detail not shown here. Equal values may be shown once.

B1: FIXa-R318Y/T343R/E410N (activated Factor IX variant, mature FIX numbering) (protein)
chain 1: YNSGKLEEFVQGNLERECMEEKCSFEEAREVFENTERTTEFWKQYVDGDQCESNPCLNGGSCKDDINSYECWCPFGFEGKNCELDVTCNIKNGRCEQFCKNSADNKVVCSCTEGYRLAENQKSCEPAVPFPCGRVSVSQTSKLTR
chain 2: VVGGEDAKPGQFPWQVVLNGKVDAFCGGSIVNEKWIVTAAHCVETGVKITVVAGEHNIEETEHTEQKRNVIRIIPHHNYNAAINKYNHDIALLELDEPLVLNSYVTPICIADKEYTNIFLKFGSGYVSGWGRVFHKGYSALVLQYLRVPLVDRATCLRSTKFRIYNNMFCAGFHEGGRDSCQGDSGGPHVTEVEGTSFLTGIISWGEECAMKGKYGIYTKVSRYVNWIKNKTKLT
B2: FIXa-Y155F/R318Y/R338E/E410N (protein)
chain 1: YNSGKLEEFVQGNLERECMEEKCSFEEAREVFENTERTTEFWKQYVDGDQCESNPCLNGGSCKDDINSYECWCPFGFEGKNCELDVTCNIKNGRCEQFCKNSADNKVVCSCTEGYRLAENQKSCEPAVPFPCGRVSVSQTSKLTR
chain 2: VVGGEDAKPGQFPWQVVLNGKVDAFCGGSIVNEKWIVTAAHCVETGVKITVVAGEHNIEETEHTEQKRNVIRIIPHHNYNAAINKYNHDIALLELDEPLVLNSYVTPICIADKEYTNIFLKFGSGYVSGWGRVFHKGYSALVLQYLRVPLVDRATCLESTKFTIYNNMFCAGFHEGGRDSCQGDSGGPHVTEVEGTSFLTGIISWGEECAMKGKYGIYTKVSRYVNWIKNKTKLT
B3: FIXa-K228N/K247N/N249S/R318Y/R338E/T343R/R403E (activated Factor IX variant, mature FIX numbering) (protein)
chain 1: YNSGKLEEFVQGNLERECMEEKCSFEEAREVFENTERTTEFWKQYVDGDQCESNPCLNGGSCKDDINSYECWCPFGFEGKNCELDVTCNIKNGRCEQFCKNSADNKVVCSCTEGYRLAENQKSCEPAVPFPCGRVSVSQTSKLTR
chain 2: VVGGEDAKPGQFPWQVVLNGKVDAFCGGSIVNEKWIVTAAHCVETGVNITVVAGEHNIEETEHTEQNRSVIRIIPHHNYNAAINKYNHDIALLELDEPLVLNSYVTPICIADKEYTNIFLKFGSGYVSGWGRVFHKGYSALVLQYLRVPLVDRATCLESTKFRIYNNMFCAGFHEGGRDSCQGDSGGPHVTEVEGTSFLTGIISWGEECAMKGKYGIYTKVSEYVNWIKEKTKLT
B4: FIXa variant R318Y/R338E/N346Y/R403E/E410N (mature FIX numbering) (protein)
chain 1: YNSGKLEEFVQGNLERECMEEKCSFEEAREVFENTERTTEFWKQYVDGDQCESNPCLNGGSCKDDINSYECWCPFGFEGKNCELDVTCNIKNGRCEQFCKNSADNKVVCSCTEGYRLAENQKSCEPAVPFPCGRVSVSQTSKLTR
chain 2: VVGGEDAKPGQFPWQVVLNGKVDAFCGGSIVNEKWIVTAAHCVETGVKITVVAGEHNIEETEHTEQKRNVIRIIPHHNYNAAINKYNHDIALLELDEPLVLNSYVTPICIADKEYTNIFLKFGSGYVSGWGRVFHKGYSALVLQYLRVPLVDRATCLESTKFTIYYNMFCAGFHEGGRDSCQGDSGGPHVTEVEGTSFLTGIISWGEECAMKGKYGIYTKVSEYVNWIKNKTKLT
B5: FIXa-R318Y/R403E/E410N (protein)
chain 1: YNSGKLEEFVQGNLERECMEEKCSFEEAREVFENTERTTEFWKQYVDGDQCESNPCLNGGSCKDDINSYECWCPFGFEGKNCELDVTCNIKNGRCEQFCKNSADNKVVCSCTEGYRLAENQKSCEPAVPFPCGRVSVSQTSKLTR
chain 2: VVGGEDAKPGQFPWQVVLNGKVDAFCGGSIVNEKWIVTAAHCVETGVKITVVAGEHNIEETEHTEQKRNVIRIIPHHNYNAAINKYNHDIALLELDEPLVLNSYVTPICIADKEYTNIFLKFGSGYVSGWGRVFHKGYSALVLQYLRVPLVDRATCLRSTKFTIYNNMFCAGFHEGGRDSCQGDSGGPHVTEVEGTSFLTGIISWGEECAMKGKYGIYTKVSEYVNWIKNKTKLT
B6: FIXa-R318Y/R338E/R403E/E410N (protein)
chain 1: YNSGKLEEFVQGNLERECMEEKCSFEEAREVFENTERTTEFWKQYVDGDQCESNPCLNGGSCKDDINSYECWCPFGFEGKNCELDVTCNIKNGRCEQFCKNSADNKVVCSCTEGYRLAENQKSCEPAVPFPCGRVSVSQTSKLTR
chain 2: VVGGEDAKPGQFPWQVVLNGKVDAFCGGSIVNEKWIVTAAHCVETGVKITVVAGEHNIEETEHTEQKRNVIRIIPHHNYNAAINKYNHDIALLELDEPLVLNSYVTPICIADKEYTNIFLKFGSGYVSGWGRVFHKGYSALVLQYLRVPLVDRATCLESTKFTIYNNMFCAGFHEGGRDSCQGDSGGPHVTEVEGTSFLTGIISWGEECAMKGKYGIYTKVSEYVNWIKNKTKLT
B7: FIXa-K228N/K247N/N249S/R318Y/R338E/T343R/E410N (activated Factor IX variant, mature FIX numbering) (protein)
chain 1: YNSGKLEEFVQGNLERECMEEKCSFEEAREVFENTERTTEFWKQYVDGDQCESNPCLNGGSCKDDINSYECWCPFGFEGKNCELDVTCNIKNGRCEQFCKNSADNKVVCSCTEGYRLAENQKSCEPAVPFPCGRVSVSQTSKLTR
chain 2: VVGGEDAKPGQFPWQVVLNGKVDAFCGGSIVNEKWIVTAAHCVETGVNITVVAGEHNIEETEHTEQNRSVIRIIPHHNYNAAINKYNHDIALLELDEPLVLNSYVTPICIADKEYTNIFLKFGSGYVSGWGRVFHKGYSALVLQYLRVPLVDRATCLESTKFRIYNNMFCAGFHEGGRDSCQGDSGGPHVTEVEGTSFLTGIISWGEECAMKGKYGIYTKVSRYVNWIKNKTKLT
B8: FIXa-D104N/K106S/R318Y/R338E/E410N (protein)
chain 1: YNSGKLEEFVQGNLERECMEEKCSFEEAREVFENTERTTEFWKQYVDGDQCESNPCLNGGSCKDDINSYECWCPFGFEGKNCELDVTCNIKNGRCEQFCKNSANNSVVCSCTEGYRLAENQKSCEPAVPFPCGRVSVSQTSKLTR
chain 2: VVGGEDAKPGQFPWQVVLNGKVDAFCGGSIVNEKWIVTAAHCVETGVKITVVAGEHNIEETEHTEQKRNVIRIIPHHNYNAAINKYNHDIALLELDEPLVLNSYVTPICIADKEYTNIFLKFGSGYVSGWGRVFHKGYSALVLQYLRVPLVDRATCLESTKFTIYNNMFCAGFHEGGRDSCQGDSGGPHVTEVEGTSFLTGIISWGEECAMKGKYGIYTKVSRYVNWIKNKTKLT
B9: FIXa-K228N/R318Y/R338E/T343R/R403E/E410N (activated Factor IX variant, mature FIX numbering) (protein)
chain 1: YNSGKLEEFVQGNLERECMEEKCSFEEAREVFENTERTTEFWKQYVDGDQCESNPCLNGGSCKDDINSYECWCPFGFEGKNCELDVTCNIKNGRCEQFCKNSADNKVVCSCTEGYRLAENQKSCEPAVPFPCGRVSVSQTSKLTR
chain 2: VVGGEDAKPGQFPWQVVLNGKVDAFCGGSIVNEKWIVTAAHCVETGVNITVVAGEHNIEETEHTEQKRNVIRIIPHHNYNAAINKYNHDIALLELDEPLVLNSYVTPICIADKEYTNIFLKFGSGYVSGWGRVFHKGYSALVLQYLRVPLVDRATCLESTKFRIYNNMFCAGFHEGGRDSCQGDSGGPHVTEVEGTSFLTGIISWGEECAMKGKYGIYTKVSEYVNWIKNKTKLT
B10: FIXa-K228N/R318Y/E410N (protein)
chain 1: YNSGKLEEFVQGNLERECMEEKCSFEEAREVFENTERTTEFWKQYVDGDQCESNPCLNGGSCKDDINSYECWCPFGFEGKNCELDVTCNIKNGRCEQFCKNSADNKVVCSCTEGYRLAENQKSCEPAVPFPCGRVSVSQTSKLTR
chain 2: VVGGEDAKPGQFPWQVVLNGKVDAFCGGSIVNEKWIVTAAHCVETGVNITVVAGEHNIEETEHTEQKRNVIRIIPHHNYNAAINKYNHDIALLELDEPLVLNSYVTPICIADKEYTNIFLKFGSGYVSGWGRVFHKGYSALVLQYLRVPLVDRATCLRSTKFTIYNNMFCAGFHEGGRDSCQGDSGGPHVTEVEGTSFLTGIISWGEECAMKGKYGIYTKVSRYVNWIKNKTKLT
B11: FIXa variant R318Y/R338E/T343R/R403E/E410N (mature FIX numbering) (protein)
chain 1: YNSGKLEEFVQGNLERECMEEKCSFEEAREVFENTERTTEFWKQYVDGDQCESNPCLNGGSCKDDINSYECWCPFGFEGKNCELDVTCNIKNGRCEQFCKNSADNKVVCSCTEGYRLAENQKSCEPAVPFPCGRVSVSQTSKLTR
chain 2: VVGGEDAKPGQFPWQVVLNGKVDAFCGGSIVNEKWIVTAAHCVETGVKITVVAGEHNIEETEHTEQKRNVIRIIPHHNYNAAINKYNHDIALLELDEPLVLNSYVTPICIADKEYTNIFLKFGSGYVSGWGRVFHKGYSALVLQYLRVPLVDRATCLESTKFRIYNNMFCAGFHEGGRDSCQGDSGGPHVTEVEGTSFLTGIISWGEECAMKGKYGIYTKVSEYVNWIKNKTKLT
B12: FIXa-K228N/K247N/N249S/R318Y/T343R/R403E/E410N (activated Factor IX variant, mature FIX numbering) (protein)
chain 1: YNSGKLEEFVQGNLERECMEEKCSFEEAREVFENTERTTEFWKQYVDGDQCESNPCLNGGSCKDDINSYECWCPFGFEGKNCELDVTCNIKNGRCEQFCKNSADNKVVCSCTEGYRLAENQKSCEPAVPFPCGRVSVSQTSKLTR
chain 2: VVGGEDAKPGQFPWQVVLNGKVDAFCGGSIVNEKWIVTAAHCVETGVNITVVAGEHNIEETEHTEQNRSVIRIIPHHNYNAAINKYNHDIALLELDEPLVLNSYVTPICIADKEYTNIFLKFGSGYVSGWGRVFHKGYSALVLQYLRVPLVDRATCLRSTKFRIYNNMFCAGFHEGGRDSCQGDSGGPHVTEVEGTSFLTGIISWGEECAMKGKYGIYTKVSEYVNWIKNKTKLT

How the values were obtained:
[1] = biological target: Factor X (FX) zymogen, active site titrated and DFP/EGR-cmk treated, P00742
[2] = biological target: antithrombin III (plasma purified human AT-III), used as the AT-III/unfractionated heparin complex; test: K0.5 ratio to Catalyst Biosciences WT FIXa, AT-III/UFH inhibition assay
[3] = biological target: T1, Antithrombin III (plasma purified human AT-III, Molecular Innovations); test: same assay; ratio to recombinant wild-type FIXa (Catalyst Biosciences WT)
[4] = biological target: T1, Antithrombin III (plasma purified human …); test: AT-III/UFH inhibition: FIXa variant incubated with AT-III dilutions in excess unfractionated heparin, residual cleavage of Mesyl-D-CHG-Gly-Arg-AMC; K0.5 = AT-III concentration for 50% inhibition (IC50)
[5] = biological target: plasma purified human AT-III (antithrombin III), in complex with full-length unfractionated heparin (UFH); test: ratio of K0.5 (lower-limit value) of the variant to K0.5 of Catalyst Biosciences WT FIXa, AT-III/UFH inhibition

Sequence of Factor X, P00742 (P00742 whole entry, looked up): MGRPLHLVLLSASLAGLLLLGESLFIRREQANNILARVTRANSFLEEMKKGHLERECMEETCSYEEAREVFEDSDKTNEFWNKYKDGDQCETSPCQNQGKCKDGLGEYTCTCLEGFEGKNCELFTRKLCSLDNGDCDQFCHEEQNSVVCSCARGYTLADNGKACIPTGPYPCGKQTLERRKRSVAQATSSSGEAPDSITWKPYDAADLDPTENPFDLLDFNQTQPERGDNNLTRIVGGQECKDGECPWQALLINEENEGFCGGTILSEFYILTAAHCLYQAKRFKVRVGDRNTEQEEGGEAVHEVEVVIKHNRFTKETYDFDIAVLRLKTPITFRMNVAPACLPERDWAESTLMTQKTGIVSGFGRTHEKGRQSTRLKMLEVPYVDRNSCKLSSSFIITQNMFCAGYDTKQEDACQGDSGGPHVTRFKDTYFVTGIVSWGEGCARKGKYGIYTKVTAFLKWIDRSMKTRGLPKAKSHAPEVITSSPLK
Sequence of Factor X (FX) zymogen, active site titrated and DFP/EGR-cmk treated, P00742 (P00742 whole entry, looked up): as above
Sequence of Factor X (FX), P00742 (P00742 whole entry, looked up): as above

Row | Protein | % of WT kcat/KM (against recombinant Catalyst Biosciences WT FIXa) [1] | kcat/KM (catalytic activity for FX activation; Xase complex with FVIIIa, PC/PS vesicles and Ca2+; fluorogenic Spectrafluor FXa read-out) [1] | kcat (Factor X (FX), P00742) | KM (Factor X, P00742) | K0.5-mut/K0.5-wt [2] | K0.5-mut/K0.5-wt [3] | K0.5 [4] | K0.5-mut/K0.5-wt [5] | catalytic activity (kcat/KM) for activation of FX (Factor X (FX), P00742)
1 | B1 | 135% | 6.2e+07 M⁻¹ s⁻¹ | – | – | – | – | – | – | –
2 | B2 | – | – | 5.6 s⁻¹ | 0.016 µM | 56.8 fold | 56.8 | 1.1 µM | – | –
3 | B3 | 636% | 2.9e+08 M⁻¹ s⁻¹ | – | – | – | – | – | – | –
4 | B4 | – | – | – | – | – | – | – | 517 | –
5 | B5 | – | – | 2.3 s⁻¹ | 0.0883 µM | 366 fold | 366 | 7.07 µM | – | –
6 | B6 | – | – | 5 s⁻¹ and 5.8 s⁻¹ | 0.0455 µM | 304 fold | 304 | 5.88 µM | – | displayed some of the greatest increases in catalytic activity
7 | B7 | 278% | 1.3e+08 M⁻¹ s⁻¹ | – | – | – | – | – | – | –
8 | B8 | – | – | 4.8 s⁻¹ | 0.0189 µM | 327 fold | 327 | 6.33 µM | – | –
9 | B9 | 593% | 2.7e+08 M⁻¹ s⁻¹ | – | – | – | – | – | – | –
10 | B10 | – | – | 5 s⁻¹ | 0.042 µM | 24.6 fold | 24.6 | 0.475 µM | – | –
11 | B11 | – | – | – | – | – | – | – | 517 | –
12 | B12 | 153% | 7.1e+07 M⁻¹ s⁻¹ | – | – | – | – | – | – | –
